Usually Km stands for the concentration of substrate that gives half-maximal velocity.

The results in this text go back to paper PMC8608799, “The main oxidative inactivation pathway of the plant hormone auxin” (Nature Communications, 2021).

Substrate in data set [1]: O=C(O)C[C@H](NC(=O)Cc1c[nH]c2ccccc12)C(=O)O
Nature of the data set: HPLC of oxidised product, Michaelis-Menten. It counts as biochemical, Arabidopsis thaliana. The settings on record: 0.5 mM 2-oxoglutarate, 2 μM Fe(II), 5 mM ascorbate, 50 mM potassium phosphate pH 7.2, 30 °C.

Substrate in data set [2]: O=C(O)CC[C@H](NC(=O)Cc1c[nH]c2ccccc12)C(=O)O
Description: HPLC of oxidised product, Michaelis-Menten. As to conditions: 0.5 mM 2-oxoglutarate, 2 μM Fe(II), 5 mM ascorbate, 50 mM potassium phosphate pH 7.2, 30 °C. It counts as biochemical, Arabidopsis thaliana.

B1: AtDAO1 (Arabidopsis thaliana) (protein)
chain: MGELNGVIIPTIDLEEVSDKILNQKIREASERWGCFRVINHGVSLSLMAEMKKTVIDLFQRPYEVKVRNTDVLLGSGYRAPNEINPYYEALGLYDMASPHAVNTFCDQLEASADQREIMVKYAKAINGLATDLARKLAESYGLVETDFFKEWPSQFRINKYHFKPETVGKLGVQLHTDSGFLTILQDDENVGGLEAMDNSSGTFFPIDPLPNTLAINLGDMATIWSNGRLCNVKHRVQCKEATMRYSIASFLLGPMDTDLEPPSEFVDAEHPRLYKPISHEGVRNIRMTKKLHDGEALKLITHAGLDK
notes: full-length ORF in pCold I, N-terminal His tag kept, E. coli BL21, TALON purified
As for B1, the Km in data set [1] stood at 13.5 µM; in data set [2], 9.4 µM.
